The values that follow come from patent US20250326843A1 (HARBOUR BIOMED SHANGHAI, published 2025).

For assay [1], the target named is T1, murine B7-H4 (murine, UniProt Q7TSP5 25-257).
T1 construct: whole, on cells; also called mB7-H4
T1 sequence (looked up): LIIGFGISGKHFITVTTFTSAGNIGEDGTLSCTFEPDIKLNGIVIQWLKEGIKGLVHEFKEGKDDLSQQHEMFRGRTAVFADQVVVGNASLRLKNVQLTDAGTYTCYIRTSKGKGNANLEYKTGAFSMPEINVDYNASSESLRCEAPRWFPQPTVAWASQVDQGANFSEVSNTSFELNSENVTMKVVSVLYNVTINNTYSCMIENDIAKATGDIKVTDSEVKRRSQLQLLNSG
The assay is described as follows: flow cytometry on CHO-K1/mB7-H4 cells. The source says: (§1) The CHO-K1 cell strain CHO-K1/huB7-H4 over-expressing human B7-H4 (produced in-house by Harbour BioMed), the CHO-K1 cell strain CHO-K1/cynoB7-H4 over-expressing cynomolgus monkey B7-H4 (produced in-house by Harbour BioMed), the CHO-K1 cell strain CHO-K1/mB7-H4 over-expressing murine B7-H4 (produced in-house by Harbour BioMed), SK-BR-3 and MDA-MB-468 cells were digested. T cells were isolated using the human T cell isolation kit (Miltenyi, #130-096-535) as described in the method of the instruction, and resuspended with PBS containing 2% FBS. The cell density was adjusted to 1×10⁶ cells/mL. The cells were seeded onto a 96-well V-bottom plate (Coming, #3894) at 100 μL/well, followed by the addition of test antibodies diluted in a 3-fold gradient at a concentration that was 2 times the final concentration, each at 100 μL/well. The cells were incubated away from light at 4° C. for 2 h. Thereafter, the cells in each well were rinsed twice with 100 μL of pre-cooled PBS containing 2% BSA, and centrifuged at 500 g at 4° C. for 5 min, and then the supernatant was discarded. […] Finally, the cells in each well were resuspended with 200 μL of pre-cooled PBS containing 2% BSA, and the fluorescence signal values were read using an ACEA Novocyte3000 flow cytometer.
For orientation: In flow cytometry, cells or beads pass a laser one at a time.

The target of assay [2] is T2, human B7-H4 (human, UniProt Q7Z7D3 25-282).
T2 construct: whole, on cells; also called huB7-H4; B7-H4 on CHO-K1/huB7-H4, SK-BR-3 and MDA-MB-468 cells
T2 sequence (looked up): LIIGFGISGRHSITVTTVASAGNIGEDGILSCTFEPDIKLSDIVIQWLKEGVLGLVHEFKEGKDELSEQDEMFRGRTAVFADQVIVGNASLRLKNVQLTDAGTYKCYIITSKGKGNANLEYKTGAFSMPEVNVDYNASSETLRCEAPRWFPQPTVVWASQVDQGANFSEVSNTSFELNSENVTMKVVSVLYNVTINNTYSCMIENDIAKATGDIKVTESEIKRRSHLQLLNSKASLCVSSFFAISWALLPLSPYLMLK
The assay is described as follows: flow cytometry on CHO-K1/huB7-H4 cells.
From the text: as §1

B1: B7-H4×CD3 bispecific antibody PR003733 (bispecific antibody, human IgG1, lambda, L234A L235A)
light: QAVVTQEPSLTVSPGGTVTLTCRSSTGAVTTSNYANWVQQKPGQAPRGLIGGTNKRAPWTPARFSGSLLGDKAALTLLGAQPEDEAEYFCALWYSNLWVFGGGTKLTVLGQPKAAPSVTLFPPSSEELQANKATLVCLISDFYPGAVTVAWKADSSPVKAGVETTTPSKQSNNKYAASSYLSLTPEQWKSHRSYSCQVTHEGSTVEKTVAPTECS
heavy: not shown
chain: EIVMTQSPASLSVSPGERATLSCRASQSVSSNLAWYQQKPGQAPRLLIYGASTRATGIPARVSGGGSGTEFTLTISSLQSEDFAVYYCQQYKNWPFTFGPGTKLEIKGGGGSGGGGSGGGGSGGGGSQVQLVQSGAEVKKPGSSMRVSCKASEDTFSSYAISWVRQAPGQGLEWMGGTAPIFGTTNYAQKFQGRVTITADKSTSTAYMELSSLRSEDTAVYYCARGGPYFDYWGQGTLVTVSSASEPKSSDKTHTCPPCPAPEAAGGPSVFLFPPKPKDTLMISRTPEVTCVVVDVSHEDPEVKFNWYVDGVEVHNAKTKPREEQYNSTYRVVSVLTVLHQDWLNGKEYKCKVSNKALPAPIEKTISKAKGQPREPQVCTLPPSREEMTKNQVSLSCAVKGFYPSDIAVEWESNGQPENNYKTTPPVLDSDGSFFLVSKLTVDKSRWQQGNVFSCSVMHEALHNHYTQKSLSLSPGK
notes: Fab-Fc-scFv asymmetric structure (structure A); CD3 arm from PR001848, B7-H4 arm from PR003366
As to B1, the binding result in assay [1] is listed as “binds”.

B2: B7-H4×CD3 bispecific antibody PR003899 (bispecific antibody, human IgG1, lambda, L234A L235A)
light: B1 light
heavy: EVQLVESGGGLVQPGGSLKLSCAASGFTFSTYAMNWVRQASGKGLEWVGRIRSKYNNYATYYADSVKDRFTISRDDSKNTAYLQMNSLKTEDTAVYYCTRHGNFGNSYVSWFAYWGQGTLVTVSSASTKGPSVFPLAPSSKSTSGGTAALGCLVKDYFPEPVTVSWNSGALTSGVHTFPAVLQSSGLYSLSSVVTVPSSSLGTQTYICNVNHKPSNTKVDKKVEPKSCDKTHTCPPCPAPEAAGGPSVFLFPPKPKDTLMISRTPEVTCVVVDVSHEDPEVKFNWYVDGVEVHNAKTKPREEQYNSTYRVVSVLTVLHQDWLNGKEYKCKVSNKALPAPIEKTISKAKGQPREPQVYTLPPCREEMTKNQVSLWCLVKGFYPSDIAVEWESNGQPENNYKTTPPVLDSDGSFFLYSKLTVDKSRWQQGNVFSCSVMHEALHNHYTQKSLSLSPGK
chain: B1 chain
notes: Fab-Fc-scFv asymmetric structure (structure A); CD3 arm from PR003886, B7-H4 arm from PR003366
With B2, the binding result in assay [2] and in assay [1] was “binds” in each case.
